The values below come from the RNAGym collection of RNA variant scans (doi:10.1093/nar/gkz1192).

The chains are these.
B1: CPEB3 Ribozyme (parent)
chain: UAACAGGGGGCCACAGCAGAAGCGUUCACGUCGCAGCCCCUGUCAGAUUCUGGUGAAUCUGCGAAUUCUGCUGUAUAUCUC

This data set covers variants of B1. The data set can be described thus: self-cleavage, relative activity (ratio to wild type); higher = more cleavage; in vitro, sequencing. An outline of the steps: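 Barcoded CPEB3 ribozyme mutants, produced by rounds of error-prone PCR, self-cleaved while being transcribed with T7 RNA polymerase for 5 hours at 37°C and during a subsequent 15 min DNase I step before EDTA was added. Sequencing of template-switched cDNA on Illumina gave cleaved and total reads, and DNA sequencing assigned barcodes to variants. Each variant's relative activity is its cleaved/total read fraction divided by the unmutated ribozyme's fraction, averaged across three batches. A variant needed a minimum of 5 reads.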
Take C11U U49C: the self-cleavage worked out at 0.24.
Then G53C G55A, with 0.98; and C50G A57G, with 0.51.
For the variant U31G U72A, the self-cleavage stood at 0.5.
Consider A2G A15U, for which the self-cleavage came out at 0.41.
With C39G U49C, the self-cleavage is 0.12.
U1C U43A: the self-cleavage amounted to 1.1.
Regarding A3G C44A, the self-cleavage is 0.42.
Then G19A U66G, with 0.51; and U1C A5C, with 0.82.
In the case of A15G C79A, the self-cleavage came out at 1.19.
As for U58A U76A, the figure is 0.49; as for C50U A64U, 0.52.
Take G55A U69C: the self-cleavage came to 0.28.
C17G U25A: the self-cleavage was 0.09.
For the variant G7U A13U, the self-cleavage worked out at 0.34.
As for U26A C62G, the figure is 0.2; as for A15U U54G, 0.59; as for U54A G55A, 0.8.
For the variant A21G U80G, the self-cleavage stood at 0.76.
Turning to U25G U74G, the self-cleavage is 0.37.
With U1C A2U, the self-cleavage is 1.04.
For the variant G33U U67C, the self-cleavage worked out at 0.16.
Then G16U A35U, with 0.23; and A75U, with 1.15.
On to A18U G55A, for which the self-cleavage stood at 0.29.
Then U49C, with 0.43; and C71G U78C, with 0.36.
Turning to C50A A64G, the self-cleavage was 0.73.
As for U43G U54A, the self-cleavage is 0.26.
As to A28C U49C, the self-cleavage turned out to be 0.21.
With A15C U66C, the self-cleavage worked out at 0.29.
Take A18U U25A: the self-cleavage was 0.19.
For A15U U78A, the self-cleavage worked out at 0.48.
Then A3G U25A, with 0.63.
For the variant C12U U67G, the self-cleavage was 0.95.
As for A21G U51A, the figure is 0.64.
As to C37G C44A, the self-cleavage came out at 0.39.
As for G33C A45G, the figure is 0.23; as for U31C U49C, 0.23.
Take A5G C38G: the self-cleavage turned out to be 0.37.
As for G24C U31C, the self-cleavage was 0.1.
For G24C U31A, the self-cleavage worked out at 0.19.
U41C A56C: the self-cleavage came out at 0.64.
As for A35G C50A, the figure is 1.1; as for A35G C50U, 1.35; as for A56G U74A, 1.11.
For U1A C32G, the self-cleavage was found to be 0.09.
As for A57G U67A, the figure is 0.45; as for C34U U60C, 0.11.
For the variant A56U U76A, the self-cleavage was 0.84.
Then C39G A57G, with 0.19; and U51G C62U, with 0.24; and U1C A77G, with 0.91.
With A18U U76C, the self-cleavage came to 0.39.
Consider A45G U74C, for which the self-cleavage is 1.1.
As for C40U G46A, the self-cleavage turned out to be 0.18.
G10C U43C: the self-cleavage turned out to be 0.13.
Then A20U A21G, with 0.23.
As for A2G A20G, the self-cleavage amounted to 0.61.
On to A20G A56G, for which the self-cleavage came out at 0.66.
On to A64G U69C, for which the self-cleavage stood at 0.41.
Regarding C14U C32G, the self-cleavage stood at 0.1.
Then A20G G53U, with 0.69.
As for U41C G61C, the self-cleavage is 0.21.
For the variant U43G U80C, the self-cleavage came to 0.18.
With C40U U58A, the self-cleavage was 0.3.
Then U51A C68A, with 0.4.
Regarding U69G U80C, the self-cleavage was found to be 0.82.
Then A2G U72G, with 0.42; and U72A, with 0.81.
For the variant U41C U66C, the self-cleavage came to 0.49.
As to G33A C68G, the self-cleavage came to 0.11.
Then U69C G73A, with 0.99; and C12A G30U, with 0.26; and C11G A28G, with 0.24.
For the variant C17U C38A, the self-cleavage was 0.39.
U60A G61C: the self-cleavage is 0.22.
On to A21U A47G, for which the self-cleavage worked out at 0.38.
As for A20C G24C, the figure is 0.1; as for U31G U80C, 0.72; as for C39A U54A, 0.16.
With G16C A77G, the self-cleavage amounted to 0.21.
Regarding A75C U80C, the self-cleavage is 1.18.
In the case of A2U A56U, the self-cleavage stood at 0.4.
Turning to A15G U78C, the self-cleavage amounted to 0.78.
As for A3U G10U, the figure is 0.19.
Regarding U41A C44U, the self-cleavage worked out at 0.23.
For the variant A3G U67A, the self-cleavage came out at 0.52.
With C68A, the self-cleavage turned out to be 0.41.
Take U74A A75U: the self-cleavage came out at 1.29.
A15U C62U: the self-cleavage came out at 0.18.
For G6A G10A, the self-cleavage worked out at 0.41.
As to C38A U54C, the self-cleavage came out at 0.29.
In the case of C32A G70U, the self-cleavage turned out to be 0.12.
Turning to G9A A75G, the self-cleavage came out at 0.31.
For the variant G8U U80G, the self-cleavage turned out to be 0.2.
As for G7U U26C, the figure is 0.15; as for G52U U54A, 1.09.
For C27A U74C, the self-cleavage turned out to be 0.19.
For the variant A3U U67A, the self-cleavage was determined as 0.75.
On to A2G A57G, for which the self-cleavage was 0.5.
In the case of A3G G33A, the self-cleavage was determined as 0.38.
G19U A28U: the self-cleavage amounted to 0.08.
Consider A2G C37A, for which the self-cleavage turned out to be 0.27.
For A47G G73A, the self-cleavage is 1.21.
Consider G9A C17U, for which the self-cleavage is 0.23.
For the variant A47G A56G, the self-cleavage worked out at 0.71.
For the variant A2C G61A, the self-cleavage came to 0.48.
Then G8A U72A, with 0.07; and G19U C44A, with 0.43; and G53U U72A, with 0.94.
For U25A U76A, the self-cleavage is 0.25.
As for A13C G73C, the figure is 0.48.
Consider A28C C32A, for which the self-cleavage was determined as 0.24.
Then A57U U74C, with 1.03; and A13U A21U, with 0.35.
Consider A45G U80G, for which the self-cleavage came out at 1.02.
On to A15C A20G, for which the self-cleavage came to 0.66.
For C50A U80C, the self-cleavage is 1.05.
Then A13U U26G, with 0.4; and G36C U67C, with 0.18.
Then U1G A57C, with 0.37; and C29A U41C, with 0.39; and U72A A77G, with 1.02.
Turning to U26A C27G, the self-cleavage turned out to be 0.12.
As to U25C U80C, the self-cleavage stood at 0.35.
As for C37U A57G, the figure is 0.58; as for G10A A28G, 0.21; as for A18C U41G, 0.53.
Consider G8A G22A, for which the self-cleavage was found to be 0.27.
Then C40U C59U, with 0.28; and G33A C79A, with 0.23; and A64G A75U, with 1.01.
As for G19A U60G, the self-cleavage came out at 0.4.
Turning to G22C U72C, the self-cleavage turned out to be 0.2.
As for G19A U51C, the figure is 0.32; as for G6U U78A, 0.79.
Take G30A C40U: the self-cleavage turned out to be 0.54.
For U1A U60C, the self-cleavage was determined as 0.35.
A28G U67C: the self-cleavage worked out at 0.17.
As for C29A U49G, the self-cleavage came out at 0.22.
With C29A U49A, the self-cleavage is 0.45.
Turning to U76C A77G, the self-cleavage amounted to 1.07.
For A35U U66C, the self-cleavage was found to be 0.25.
In the case of A35G G46C, the self-cleavage was 1.12.
With C40U A75G, the self-cleavage was 0.5.
Take U41A A57C: the self-cleavage stood at 0.4.
Then C17U A21G, with 0.32; and A3G U43A, with 0.99.
In the case of C12A C68G, the self-cleavage was 0.52.
Take U1C U41A: the self-cleavage came to 0.21.
Consider A18G U78C, for which the self-cleavage was found to be 0.82.
Then A18G C32G, with 0.1; and A3G C14U, with 1.12.
Consider A45U U69C, for which the self-cleavage was 0.31.
As for A2C C23U, the figure is 0.25.
As for C40A U41A, the figure is 0.1; as for G19U U72C, 0.4; as for U41A U67C, 0.21.
As to A28U U72A, the self-cleavage came out at 0.55.
Then A15U A45C, with 0.18; and A5G C40G, with 0.22; and U78G U80C, with 0.94.
With A20U U58C, the self-cleavage turned out to be 0.28.
Turning to A18G A21C, the self-cleavage stood at 0.4.
Turning to G30C U78C, the self-cleavage came out at 0.38.
